Molecular target: HFE-WT-flagM2 (homeostatic iron regulator protein) with β2M-flagM2 (UniProt Q30201)
Chain of UniProt Q30201 (Q30201 23-348, chain 1 of 2): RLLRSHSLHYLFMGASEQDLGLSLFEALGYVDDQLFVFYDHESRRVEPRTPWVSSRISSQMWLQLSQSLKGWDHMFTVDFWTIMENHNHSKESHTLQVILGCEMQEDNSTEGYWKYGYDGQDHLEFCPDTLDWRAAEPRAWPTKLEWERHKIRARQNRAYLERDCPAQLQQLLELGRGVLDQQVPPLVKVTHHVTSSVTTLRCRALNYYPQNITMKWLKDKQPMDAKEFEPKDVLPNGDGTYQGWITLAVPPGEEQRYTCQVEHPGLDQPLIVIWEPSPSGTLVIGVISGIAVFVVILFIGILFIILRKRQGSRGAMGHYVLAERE
Chain of UniProt Q30201 (chain, as listed by the source, chain 2 of 2): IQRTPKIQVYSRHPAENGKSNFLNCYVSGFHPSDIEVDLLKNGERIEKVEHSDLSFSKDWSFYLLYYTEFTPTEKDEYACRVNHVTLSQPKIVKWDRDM

“PCSK9-WT-V5 (proprotein convertase subtilisin/kexin type 9, wild type) (from UniProt Q8NBP7 31-152; Q8NBP7 153-692) (natural protein)” showed an HFE level by Western blot in HepG2 PCSK9 KO cells expressing HFE/β2M after 18 h with conditioned medium containing WT PCSK9 (Figure 2A) of 60 % reduction.

— paper PMC11119474
